In US20200223919A1 (CYTOMX THERAPEUTICS, published 2020) one finds binding result and A620 data, which are given here for two molecules.

Positions count from the first letter of the chain named.

One test concerns the target T1, human CD166 (human, UniProt Q13740 28-583).
T1 construct: whole, on cells; Endogenous protein detected by IHC on fixed, paraffin-embedded cells and tissues, and by Western blot of cell lysates; also called hCD166
T1 sequence (looked up): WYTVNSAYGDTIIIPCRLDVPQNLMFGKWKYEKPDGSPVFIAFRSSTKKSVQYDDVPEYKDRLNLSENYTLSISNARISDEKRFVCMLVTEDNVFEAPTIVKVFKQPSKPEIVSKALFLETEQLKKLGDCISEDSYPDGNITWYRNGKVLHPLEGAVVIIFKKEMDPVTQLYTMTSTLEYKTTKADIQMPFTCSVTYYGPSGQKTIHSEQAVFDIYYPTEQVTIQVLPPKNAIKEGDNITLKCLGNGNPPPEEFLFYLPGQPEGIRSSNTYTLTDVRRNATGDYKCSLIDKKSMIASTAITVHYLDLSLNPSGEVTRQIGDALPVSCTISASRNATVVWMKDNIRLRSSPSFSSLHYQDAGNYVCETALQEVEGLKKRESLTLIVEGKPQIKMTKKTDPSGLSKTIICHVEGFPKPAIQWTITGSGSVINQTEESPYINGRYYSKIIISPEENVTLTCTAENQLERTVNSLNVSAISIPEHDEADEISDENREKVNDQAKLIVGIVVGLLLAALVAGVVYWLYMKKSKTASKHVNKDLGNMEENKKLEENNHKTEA
The test can be described thus: IHC on FFPE HCC1806 cells, supernatant at 10 µg/mL IgG. The procedure: As shown in the exemplary IHC images of FIGS. 1-4, formalin-fixed paraffin-embedded (FFPE) human tumor cell lines (triple-negative breast cancer-derived cell line HCC1806 and breast ductal carcinoma-derived cell line BT-20) were prepared and blocked using standard protocols, and then incubated with the indicated hybridoma supernatents (Ab3, Ab6, Ab2, Ab1, Ab5, Ab7, Ab4, or Ab8 of the present disclosure) at 10 μg/mL IgG for 60 minutes are room temperature. As a control, FFPE samples were also incubated with ABCAM® EPR2759(2)/ab109215 anti-hCD166 rabbit monoclonal antibody at 5 μg/mL. Detection of bound primary antibody was performed by subsequent incubation with biotinylated-conjugated anti-mouse IgG antibody (for the hybridoma supernatents) or biotinylated-conjugated anti-rabbit IgG antibody (for the ABCAM® antibody), followed by addition of avidin-horseradish peroxidase (HRP) (Vectastain Elite ABC HRP Kit, Vector Laboratories) to form the avidin-biotin-HRP complex, followed by addition of a 3,3′-diaminobenzidine substrate (DAB Plus, Dako). Tissues were counterstained with Hematoxylin (Fisher Scientific).

In test [1] the target is T2, Peptide B, amino acid residues 565 to 583 of human CD166 (human).
T2 construct: Coated at 100 or 200 ng/well with 0.9 mg/mL BSA
T2 peptide: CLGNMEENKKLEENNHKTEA
The test is described as follows: ELISA, 200 ng/well peptide with 0.9 mg/mL BSA; expanded hybridoma clone supernatant. The source says: (§1) B cells from each of Mouse #2 and Mouse #3 were fused in a combined manner to generate hybridomas in accordance with methods known in the art. Hybridomas were cloned and ˜1100 clone supernatants were screened against the each of the human CD166-derived peptides using a Direct EIA format using a goat anti-IgG gamma chain-specific secondary antibody coupled to horseradish peroxidase (HRP) (Millipore, Cat. No. AP503P. Following the initial screen, 136 clones were selected for a further confirmatory screen, of which forty (40) were selected for expansion. The expanded clones were assayed for mouse IgG levels using anti-mouse sensors in an Octet RED96 system (Pall ForteBio) and ELISA (200 ng/well of peptides A or B with 0.9 mg/mL BSA). Candidates included Ab1 (also referred to herein as “Example anti-CD166 ICD antibody 1”), Ab2 (also referred to herein as “Example anti-CD166 ICD antibody 2”), Ab3, Ab4, Ab5, Ab6, Ab7, and Ab8. Five candidates (Ab1, Ab2, Ab3, Ab4, and Ab5) shown below in Table 4 were selected.
Background: An ELISA detects its analyte on a solid surface through an enzyme-linked reagent.

Test [2] addresses T3, Peptide A, amino acid residues 550 to 569 of human CD166 (human).
T3 construct: Coated at 100 or 200 ng/well with 0.9 mg/mL BSA
T3 peptide: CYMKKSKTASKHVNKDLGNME
The description is as above.
Excerpt: as §1

B1: Ab1 anti-hCD166 mouse monoclonal antibody (antibody, mouse IgG1, kappa)
heavy: EVQLQQSGAELVKPGASVKLSCTASGFNIKDYYMHWVKQRTEQGLEWIGKIDPENGETKYAPKFQGKATITADTSSSTAYLQLSSLTSEDTAVYYCAREGFMDYWGQGASVTVSSAKTTPPSVYPLAPGSAAQTNSMVTLGCLVKGYFPEPVTVTWNSGSLSSGVHTFPAVLQSDLYTLSSSVTVPSSTWPSQTVTCNVAHPASSTKVDKKIVPRDCGCKPCICTVPEVSSVFIFPPKPKDVLTITLTPKVTCVVVDISKDDPEVQFSWFVDDVEVHTAQTQPREEQFNSTFRSVSELPIMHQDWLNGKEFKCRVNSAAFPAPIEKTISKTKGRPKAPQVYTIPPPKEQMAKDKVSLTCMITDFFPEDITVEWQWNGQPAENYKNTQPIMDTDGSYFVYSKLNVQKSNWEAGNTFTCSVLHEGLHNHHTEKSLSHSPGK
light: DVVMTQTPLSLPVSLGDQASISCRSSQSLVHSNGNTYLHWYLQKPGQSPKLLIYKVSNRFSGVPDRFSGSGSGTDFTLKISRVEAEDLGVYFCSQSTFVPLTFGAGTKLELKRADAAPTVSIFPPSSEQLTSGGASVVCFLNNFYPKDINVKWKIDGSERQNGVLNSWTDQDSKDSTYSMSSTLTLTKDEYERHNSYTCEATHKTSTSPIVKSFNRNEC
notes: also called recombinant Ab1
Regarding B1, in the test with human CD166, the binding result is reported as “binds”. In addition, the A620 was 3.23 A620 in test [1] and 0.162 A620 in test [2].

B2: Ab2 anti-hCD166 mouse monoclonal antibody (antibody, mouse IgG1, kappa)
heavy: B1 heavy with K38R, N55D, S77N, A109T
light: B1 light with V2N, P12S, F98H
notes: Tested as hybridoma supernatant and as antibody purified from hybridoma supernatant
On to B2, for which, in the test with human CD166, the binding result is “binds”. Moreover, the results for the A620 in test [1] and in test [2] were 3.02 A620 and 0.067 A620, respectively.
